# From patent US20200392228A1 (PANDION OPERATIONS, published 2020)
# T1: human MAdCAM protein (human, UniProt Q13477 19-317)
# T1 construct: used for Octet, SPR, ELISA and plate capture; construct not described; also called recombinant human MAdCAM; soluble monomeric human MAdCAM
# T1 sequence (looked up): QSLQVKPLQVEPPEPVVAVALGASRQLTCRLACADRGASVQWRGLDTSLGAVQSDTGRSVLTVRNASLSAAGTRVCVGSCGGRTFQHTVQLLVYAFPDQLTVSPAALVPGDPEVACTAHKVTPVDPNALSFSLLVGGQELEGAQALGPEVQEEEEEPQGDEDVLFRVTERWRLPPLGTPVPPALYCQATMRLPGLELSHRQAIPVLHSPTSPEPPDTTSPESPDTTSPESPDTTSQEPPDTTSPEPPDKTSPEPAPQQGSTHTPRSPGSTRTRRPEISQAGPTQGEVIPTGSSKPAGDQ
# T2: human MAdCAM expressed on cells (human, UniProt Q13477 19-382)
# T2 construct: whole, on cells; also called MADCAM1
# T2 sequence (looked up): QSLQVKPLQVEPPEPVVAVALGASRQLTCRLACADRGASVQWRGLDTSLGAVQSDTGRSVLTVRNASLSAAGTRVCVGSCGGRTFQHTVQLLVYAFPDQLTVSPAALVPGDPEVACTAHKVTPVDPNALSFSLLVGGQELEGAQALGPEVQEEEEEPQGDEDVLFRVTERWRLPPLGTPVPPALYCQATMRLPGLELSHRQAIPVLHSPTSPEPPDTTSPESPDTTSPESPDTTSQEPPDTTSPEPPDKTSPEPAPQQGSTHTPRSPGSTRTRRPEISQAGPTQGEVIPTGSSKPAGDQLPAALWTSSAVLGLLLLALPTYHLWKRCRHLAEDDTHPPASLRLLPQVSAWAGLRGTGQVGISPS
# T3: mouse MAdCAM expressed on cells (mouse, UniProt Q61826 22-405)
# T3 construct: whole, on cells
# T3 sequence (looked up): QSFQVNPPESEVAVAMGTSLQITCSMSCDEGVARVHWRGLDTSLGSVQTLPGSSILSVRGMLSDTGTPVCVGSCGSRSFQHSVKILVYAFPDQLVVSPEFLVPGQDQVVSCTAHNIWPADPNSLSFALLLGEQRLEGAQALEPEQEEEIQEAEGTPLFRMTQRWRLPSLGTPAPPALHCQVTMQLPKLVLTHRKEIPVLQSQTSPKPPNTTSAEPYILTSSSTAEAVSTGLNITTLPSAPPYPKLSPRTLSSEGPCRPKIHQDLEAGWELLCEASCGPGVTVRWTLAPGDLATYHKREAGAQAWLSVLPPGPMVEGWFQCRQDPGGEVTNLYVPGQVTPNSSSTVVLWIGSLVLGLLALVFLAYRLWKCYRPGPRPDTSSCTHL
# T4: mouse MAdCAM protein (mouse, UniProt Q61826 22-365, limits assumed)
# T4 construct: also called recombinant mouse MAdCAM-1; mMAdCAM-1
# T4 sequence (looked up): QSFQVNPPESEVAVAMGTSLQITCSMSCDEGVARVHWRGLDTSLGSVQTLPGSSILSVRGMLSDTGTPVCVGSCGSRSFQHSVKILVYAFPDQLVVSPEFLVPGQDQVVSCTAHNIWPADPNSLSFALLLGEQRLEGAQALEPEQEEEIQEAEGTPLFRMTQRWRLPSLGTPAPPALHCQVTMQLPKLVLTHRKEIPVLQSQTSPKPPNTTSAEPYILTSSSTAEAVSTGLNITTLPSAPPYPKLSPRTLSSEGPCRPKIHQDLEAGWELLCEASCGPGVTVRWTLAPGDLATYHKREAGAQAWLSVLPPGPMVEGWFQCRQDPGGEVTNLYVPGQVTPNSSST
# Legend:
# [1] = target: T1, human MAdCAM protein; assay: Octet
# [2] = target: T2, human MAdCAM expressed on cells; assay: cell binding
# [3] = target: T3, mouse MAdCAM expressed on cells; assay: cell binding
# [4] = target: T4, mouse MAdCAM protein; assay: Octet
binding result [1],binding result [2],binding result [3],binding result [4],Binder
binds,binds,binds,–,"MAdCAM antibody Clone ID 78 of Table 7 (IgG) (antibody, V domains shown, IgG format) VH: QVQLVQSGAEVKKPGSSVKVSCKASGGTFSSYAISWVRQAPGQGLEWMGWMEPHTGNTRYAQKFQGRVTITADESTSTAYMELSSLRSEDTAVYYCAKGGFSWFDPWGQGTLVTVSS VL: not shown"
–,–,no binding,no binding,"MAdCAM antibody Clone ID 28 of Table 7 (IgG) (antibody, V domains shown, IgG format) VH: EVQLLESGGGLVQPGGSLRLSCAASGFTFSSYAMSWVRQAPGKGLEWVSYISSSSTYTNYADSVKGRFTISRDNSKNTLYLQMNSLRAEDTAVYYCARANSSSWYDWYFDLWGQGTLVTVSS VL: not shown"
–,–,no binding,no binding,"MAdCAM antibody Clone ID 29 of Table 7 (IgG) (antibody, V domains shown, IgG format) VH: EVQLLESGGGLVQPGGSLRLSCAASGFTFSSYQMSWVRQAPGKGLEWVSYISSSSTYTNYADSVKGRFTISRDNSKNTLYLQMNSLRAEDTAVYYCARANSSSWYDWYFDLWGQGTLVTVSS VL: not shown"
binds,binds,no binding,no binding,"MAdCAM antibody Clone ID 20 of Table 7 (IgG) (antibody, V domains shown, IgG format) VH: EVQLLESGGGLVQPGGSLRLSCAASGFTFSDSAMHWVRQAPGKGLEWVSAISGSGSTIYYADSVKGRFTISRDNSKNTLYLQMNSLRAEDTAVYYCVSDIAVAGHWYFDLWGRGTLVTVSS VL: DIQMTQSPSSLSASVGDRVTITCRASQSISTFLNWYQQKPGKAPKLLIYAASRLEGGVPSRFSGSGSGTDFTLTISSLQPEDFATYYCQQANSFPLTFGPGTKVDIK"
binds,binds,binds,–,"MAdCAM antibody Clone ID 36 of Table 7 (IgG) (antibody, V domains shown, IgG format) VH: EVQLLESGGGLVQPGGSLRLSCAASGFTFDDYALHWVRQAPGKGLEWVSAISGDGRSTTYADSVKGRFTISRDNSKNTLYLQMNSLRAEDTAVYYCARDGTVNGATGWFDPWGQGTLVTVSS VL: not shown"
binds,binds,no binding,no binding,"MAdCAM antibody Clone ID 17 of Table 7 (IgG) (antibody, V domains shown, IgG format) VH: QVQLVQSGAEVKKPGSSVKVSCKASGYTFTDYHIHWVRQAPGQGLEWMGGIVPRSGSTTYAQKFQGRVTITADESTSTAYMELSSLRSEDTAVYYCAKDESSGWYYFDYWGQGTLVTVSS VL: DIVMTQSPLSLPVTPGEPASISCRSSQSLLHSNGYNYLDWYLQKPGQSPQLLIYSAYNRASGVPDRFSGSGSGTDFTLKISRVEAEDVGVYYCMQALQTPLTFGQGTKVEIK"
binds,binds,no binding,–,"MAdCAM antibody Clone ID 58 of Table 7 (IgG) (antibody, V domains shown, IgG format) VH: EVQLLESGGGLVQPGGSLRLSCAASGFSVSSNYMSWVRQAPGKGLEWVAGISYDGSSKPYADSVKGRFTISRDNSKNTLYLQMNSLRAEDTAVYYCARSRGIAARPLQHWGQGTLVTVSS VL: not shown"
binds,binds,no binding,no binding,"MAdCAM antibody Clone ID 23 of Table 7 (IgG) (antibody, V domains shown, IgG format) VH: EVQLLESGGGLVQPGGSLRLSCAASGFTFDDYAMHWVRQAPGKGLEWVSYIDTSSSHLYYADSVKGRFTISRDNSKNTLYLQMNSLRAEDTAVYYCARDEAAAGYYGMDVWGQGTTVTVSS VL: DIQMTQSPSSLSASVGDRVTITCQAGQDISNYLNWYQQKPGKAPKLLIYDASNLETGVPSRFSGSGSGTDFTLTISSLQPEDFATYYCQQTYSTPITFGQGTKLEIK"
binds,binds,no binding,no binding,"MAdCAM antibody Clone ID 6 of Table 7 (IgG) (antibody, V domains shown, IgG format) VH: EVQLLESGGGLVQPGGSLRLSCAASGFTFNNYAFHWVRQAPGKGLEWVSRINSYGTSTTYADSVKGRFTISRDNSKNTLYLQMNSLRAEDTAVYYCAREGPVAGYWYFDLWGQGTLVTVSS VL: DIQMTQSPSSLSASVGDRVTITCRASQIIGTNLAWYQQKPGKAPKLLIYGASSLQSGVPSRFSGSGSGTDFTLTISSLQPEDFATYYCQQSYRLPFTFGQGTKVEIK"
–,binds,no binding,no binding,"MAdCAM antibody Clone ID 24 of Table 7 (IgG) (antibody, V domains shown, IgG format) VH: EVQLVESGGGLVKPGGSLRLSCAASGFTFSSYWMSWVRQAPGKGLEWVSRISSDGRITTYAAPVKGRFTISRDDSKNTLYLQMNSLKTEDTAVYYCARGTSYCTGGVCDIDYWGQGTLVTVSS VL: DIQMTQSPSSLSASVGDRVTITCRASQSIGRNLNWYQQKPGKAPKLLIYSASNLQSGVPSRFSGSGSGTDFTLTISSLQPEDFATYYCQQSYSIPLTFGPGTKVDIK"
–,–,no binding,no binding,"MAdCAM antibody Clone ID 65 of Table 7 (IgG) (antibody, V domains shown, IgG format) VH: QVQLVQSGAEVKKPGASVKVSCKASGYTFTSYDINWVRQAPGQGLEWMGWMNPNSGNTGYAQKFQGRVTMTRDTSTSTVYMELSSLRSEDTAVYYCAKDSDYSNLLWDYWGQGTLVTVSS VL: DIQMTQSPSSLSASVGDRVTITCRASQDITNDLGWYQQKPGKAPKLLIYQASSLESGVPSRFSGSGSGTDFTLTISSLQPEDFATYYCQQSYTIPLTFGQGTKVEIK"
binds,binds,binds,–,"MAdCAM antibody Clone ID 30 of Table 7 (IgG) (antibody, V domains shown, IgG format) VH: EVQLLESGGGLVQPGGSLRLSCAASGFTFSSYAMHWVRQAPGKGLEWVSGISGSGGSAYYADSVKGRFTISRDNSKNTLYLQMNSLRAEDTAVYYCATSQAPVDYYYYGMDVWGQGTTVTVSS VL: DIQMTQSPSSLSASVGDRVTITCRASQSISSWLAWYQQKPGKAPKLLIYAASNLQRGVPSRFSGSGSGTDFTLTISSLQPEDFATYYCQQSYSIPITFGQGTKVEIK"
–,–,no binding,no binding,"MAdCAM antibody Clone ID 14 of Table 7 (IgG) (antibody, V domains shown, IgG format) VH: QVQLVQSGAEVKKPGSSVKVSCKASGYTFTNYYMHWVRQAPGQGLEWMGGIIPIVDGVKYAQKFQGRVTITADESTSTAYMELSSLRSEDTAVYYCAKGQFTGNYYYGMDYWGQGTLVTVSS VL: DIQMTQSPSSLSASVGDRVTITCQANQDISNYLNWYQQKPGKAPKLLIYRASKLEAGVPSRFSGSGSGTDFTLTISSLQPEDFATYYCQQSSEIPYSFGQGTKVEIK"
binds,binds,no binding,no binding,"MAdCAM antibody Clone ID 22 of Table 7 (IgG) (antibody, V domains shown, IgG format) VH: EVQLLESGGGLVQPGGSLRLSCAASGFTFDDYAMHWVRQAPGKGLEWVSGISWNSGSIGYADSVKGRFTISRDNSKNTLYLQMNSLRAEDTAVYYCAKDIVAAGHYYYGMDVWGQGTTVTVSS VL: DIQMTQSPSSLSASVGDRVTITCQASQDISNYLNWYQQKPGKAPKLLIYDASNLETGVPSRFSGSGSGTDFTLTISSLQPEDFATYYCQQSYSTPLTFGGGTKVEIK"
–,–,no binding,no binding,"MAdCAM antibody Clone ID 74 of Table 7 (IgG) (antibody, V domains shown, IgG format) VH: QVQLVQSGAEVKKPGASVKVSCKASGYTFTGYYMHWVRQAPGQGLEWMGIINPSGGNTKYAQKFQGRVTMTRDTSTSTVYMELSSLRSEDTAVYYCTTADYYYYMDVWGKGTTVTVSS VL: DIQMTQSPSSLSASVGDRVTITCRASQGISNYLAWYQQKPGKAPKLLIYAASSLQSGVPSRFSGSGSGTDFTLTISSLQPEDFATYYCQQYYSNADFGQGTKVEIK"
